Bridge positions count the residues as written; N and C are the ends. Square brackets hold non-standard residues; d marks the D form. Primed or numbered codes have the meaning given here. Ends that are not written are not given here. * marks the point of attachment. Glc = O-glucosyl on Ser side chain (Ser(OGlu)/Ser(OGlc)); NH(3,5-(CF3)2-benzyl) = FC(F)(F)c1cc(CN*)cc(C(F)(F)F)c1; OBzl(3,5-(CF3)2) = FC(F)(F)c1cc(CO*)cc(C(F)(F)F)c1; Glc″ = glucosyl on the serine side-chain oxygen; NH‑Bn(CF3)2 = C-terminal Bn(CF3)2 amide; Dmt = Cc1cc(O)cc(C)c1C[C@H](N)C(=O)O; Met(O) = CS(=O)CC[C@H](N)C(=O)O; Nle = CCCC[C@H](N)C(=O)O; NHBn = c1ccc(CN*)cc1

B1: H-Tyr-D-Ala-Gly-Phe-Nle-Pro-Leu-Trp-O-3,5-Bzl(CF3)2 (peptide)
peptide: YAGFXPLW
modifications: here or on the partner: D-Ala at 2; Nle (norleucine, written X) at 5; C-terminal 3,5-bis(trifluoromethyl)benzyl ester
B2: TyrDAlaGlyPheSer(OGlu)ProLeuTrpNHBn(CF3)2 (TY042) (peptide)
peptide: Y[dA]GFSPLW-{NH(3,5-(CF3)2-benzyl)}
modifications: not fully specified (residue 5); printed as TyrDAlaGlyPheSer(OGlu)ProLeuTrpNHBn(CF3)2
B3: TyrDAlaGlyPheNleProLeuTrpOBn(CF3)2 (TY018) (peptide)
peptide: YAGFXPLW
modifications: here or on the partner: D-Ala at 2; Nle (norleucine) at 5 (X); C-terminal O-3,5-Bn(CF3)2 ester
B4: TyrDAlaGlyPheNleProLeuTrpNHBn(CF3)2 (peptide)
peptide: YAGFXPLW
modifications: here or on the partner: D-Ala at 2; Nle at 5 (written X); C-terminal NH-3,5-Bzl(CF3)2 amide

The experiment deals with δ opioid receptor of the mouse isolated vas deferens (mouse), P32300. Nature of the experiment: cell-based or functional assay.
δ opioid receptor of the mouse isolated vas deferens (mouse), P32300, sequence (P32300 whole entry, stated change not applied): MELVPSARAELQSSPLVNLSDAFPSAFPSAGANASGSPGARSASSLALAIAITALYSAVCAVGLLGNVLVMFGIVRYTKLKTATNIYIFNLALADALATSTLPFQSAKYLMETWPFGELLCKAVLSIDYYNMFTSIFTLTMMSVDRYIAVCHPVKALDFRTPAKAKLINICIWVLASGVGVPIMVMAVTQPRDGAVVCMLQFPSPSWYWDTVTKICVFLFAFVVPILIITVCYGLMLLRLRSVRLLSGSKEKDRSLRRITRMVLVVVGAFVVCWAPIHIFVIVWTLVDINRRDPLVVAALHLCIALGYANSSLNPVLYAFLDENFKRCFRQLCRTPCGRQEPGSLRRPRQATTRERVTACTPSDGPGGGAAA
Turning to B1, the MVD (δ) opioid agonist IC50 came out at 16.8 nM.

The molecule Y[dA]GFFPLW-{OBzl(3,5-(CF3)2)} [TyrDAlaGlyPhePheProLeuTrpOBn(CF3)2 (TY003)] showed an MVD opioid(delta) agonist IC50 of 905 nM. For the molecule Y[dC]GF[Nle]PCW-{NH(3,5-(CF3)2-benzyl)} (disulfide 2-7) [Tyr[DCysGlyPheNleProCys]TrpNHBn(CF3)2], the MVD (δ) IC50 was 85 nM. Molecule B2 registered an MVD opioid(delta) agonist IC50 of 109 nM. Y[dA]GFGPLW-{OBzl(3,5-(CF3)2)} (also: TFA salt) [TyrDAlaGlyPheGlyProLeuTrpOBn(CF3)2] showed an MVD IC50 of 172 nM. With Y[dC]GFCPLW-{NH(3,5-(CF3)2-benzyl)} (disulfide 2-5) [Tyr[DCysGlyPheCys]ProLeuTrpNHBn(CF3)2 (TY039)], the MVD opioid(delta) agonist IC50 turned out to be 73.1 nM. Still for that read-out and setting: the value for Y[dA]GFMPLW-{NH(3,5-(CF3)2-benzyl)} [TyrDAlaGlyPheMetProLeuTrpNHBn(CF3)2 (TY027)] was 14.5 nM; that for [Dmt][dA]GF[Nle]PS(Glc)W-{NH‑Bn(CF3)2} [DmtDAlaGlyPheNleProSer(OGlu)TrpNHBn(CF3)2 (TY056)] was 3.62 nM; that for Y[dC]GF[Nle]PCW-{NH(3,5-(CF3)2-benzyl)} (disulfide 2-7) [Tyr[DCysGlyPheNleProCys]TrpNHBn(CF3)2 (TY035)] was 84.7 nM. On the same count and under the same terms, next, Y[dA]GFLPLW-{OBzl(3,5-(CF3)2)} [TyrDAlaGlyPheLeuProLeuTrpOBn(CF3)2 (TY004)]: 101 nM; Y[dA]GF[Nle]PS(Glc)W-{NH‑Bn(CF3)2} [TyrDAlaGlyPheNleProSer(OGlu)TrpNHBn(CF3)2 (TY041)]: 12.7 nM. Take H-Y[dA]GFFPLW-{OBzl(3,5-(CF3)2)} (also: TFA salt) [H-Tyr-D-Ala-Gly-Phe-Phe-Pro-Leu-Trp-O-3,5-Bzl(CF3)2]: the MVD (δ) opioid agonist IC50 was found to be 905 nM.

Consider Y[dA]GF[Nle]S(Glc″)LW-{NH(3,5-(CF3)2-benzyl)} [TyrDAlaGlyPheNleSer(OGlu)LeuTrpNHBn(CF3)2], for which the MVD IC50 worked out at 18 nM. The molecule H-Y[dA]GF[Met(O)]PLW-{OBzl(3,5-(CF3)2)} (also: TFA salt) [H-Tyr-D-Ala-Gly-Phe-Met(O)-Pro-Leu-Trp-O-3,5-Bzl(CF3)2] had an MVD (δ) opioid agonist IC50 of 33 nM.

In turn, Y[dA]GFMPLW-{NH(3,5-(CF3)2-benzyl)} [TyrDAlaGlyPheMetProLeuTrpNHBn(CF3)2] displayed an MVD IC50 of 14.5 nM.

Take [Dmt][dA]GFMPLW-NHBn [DmtDAlaGlyPheMetProLeuTrpNHBn]: the MVD IC50 was 6.9 nM. The molecule H-Y[dA]GF[dF]PLW-{OBzl(3,5-(CF3)2)} (also: TFA salt) [H-Tyr-D-Ala-Gly-Phe-D-Phe-Pro-Leu-Trp-O-3,5-Bzl(CF3)2] had an MVD (δ) opioid agonist IC50 of 412 nM. Molecule [Dmt][dA]GFMPLW-{NH(3,5-(CF3)2-benzyl)} [DmtDAlaGlyPheMetProLeuTrpNHBn(CF3)2] showed an MVD IC50 of 1.8 nM. In the case of [Dmt][dA]GFMPLW-{NH(3,5-(CF3)2-benzyl)} [DmtDAlaGlyPheMetProLeuTrpNHBn(CF3)2 (TY032)], the MVD opioid(delta) agonist IC50 was determined as 1.82 nM. The molecule Y[dA]GFMPLW-{OBzl(3,5-(CF3)2)} [TyrDAlaGlyPheMetProLeuTrpOBn(CF3)2] came in with an MVD (δ) IC50 of 22 nM and an MVD IC50 of 22.3 nM. B3 showed an MVD opioid(delta) agonist IC50 of 16.8 nM.

B4: the MVD IC50 is 13.6 nM.

[Dmt][dA]GFMPLW-{OBzl(3,5-(CF3)2)} [DmtDAlaGlyPheMetProLeuTrpOBn(CF3)2] yielded an MVD IC50 of 1.3 nM. H-Y[dA]GFMPLW-{OBzl(3,5-(CF3)2)} (also: TFA salt) [H-Tyr-D-Ala-Gly-Phe-Met-Pro-Leu-Trp-O-3,5-Bzl(CF3)2] gave an MVD (δ) opioid agonist IC50 of 22.3 nM.

[Dmt][dA]GFMPLW-{OBzl(3,5-(CF3)2)} [DmtDAlaGlyPheMetProLeuTrpOBn(CF3)2 (TY033)] showed an MVD opioid(delta) agonist IC50 of 1.27 nM. In the case of Y[dC]GFCPLW-{NH(3,5-(CF3)2-benzyl)} (disulfide 2-5) [Tyr[DCysGlyPheCys]ProLeuTrpNHBn(CF3)2], the MVD (δ) IC50 was 73 nM. Same read-out and setting: next, Y[dC]GF[dC]PLW-{NH(3,5-(CF3)2-benzyl)} (disulfide 2-5) [Tyr[DCysGlyPheDCys]ProLeuTrpNHBn(CF3)2]: 8.3 nM.
